PMC7721900, “Assembly properties of bacterial tubulin homolog FtsZ regulated by the positive regulator protein ZipA and ZapA from Pseudomonas aeruginosa” (Scientific Reports, 2020)

Tests used:
Details in all cases: both partners purified
[1] = biological target: T1, FtsZ from Escherichia coli (E. coli, UniProt P0A9A6 1-383); assay: light scattering; HMK buffer, room temperature, 340 nm; 7 µM EcFtsZ plus 10 µM EcZapA
T1 construct: FtsZ, Escherichia coli, wild type; in pET11b; also called EcFtsZ; wild type FtsZ; source: bacterially expressed (pET11b), purified (30% ammonium sulfate, source Q 10/10)
T1 sequence (looked up): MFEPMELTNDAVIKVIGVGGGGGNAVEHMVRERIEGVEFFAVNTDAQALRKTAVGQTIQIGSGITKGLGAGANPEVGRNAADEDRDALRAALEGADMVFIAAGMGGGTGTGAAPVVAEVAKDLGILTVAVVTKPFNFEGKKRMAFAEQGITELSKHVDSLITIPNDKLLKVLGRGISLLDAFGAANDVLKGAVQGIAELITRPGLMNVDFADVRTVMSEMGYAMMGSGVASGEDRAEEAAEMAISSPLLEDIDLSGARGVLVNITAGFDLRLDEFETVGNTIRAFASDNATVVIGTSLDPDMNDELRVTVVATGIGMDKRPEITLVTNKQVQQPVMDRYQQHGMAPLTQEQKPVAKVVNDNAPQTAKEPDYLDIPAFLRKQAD

[2] = biological target: T2, EcFtsZ-F268C labeled with fluorescein (donor) or tetramethylrhodamine (acceptor) (E. coli, UniProt P0A9A6 1-383, F268C, single cysteine labeled separately with Fluorescein 5-maleimide (donor) or Tetramethylrhodamine 5-maleimide (acceptor)); assay: FRET or BRET; HMK buffer; donor- and acceptor-labeled EcFtsZ-F268C polymerized separately for 5 min, alone or with 10 µM ZipA or ZapA, then mixed; decrease of donor fluorescence, single exponential fit; 7 µM EcFtsZ; subunit exchange at steady state
T2 construct: FtsZ, Escherichia coli, single cysteine mutant F268C (printed as L268C in the results); in pET11b; also called EcFtsZ-L268C; source: bacterially expressed (pET11b), purified (30% ammonium sulfate, source Q 10/10)
T2 sequence (looked up): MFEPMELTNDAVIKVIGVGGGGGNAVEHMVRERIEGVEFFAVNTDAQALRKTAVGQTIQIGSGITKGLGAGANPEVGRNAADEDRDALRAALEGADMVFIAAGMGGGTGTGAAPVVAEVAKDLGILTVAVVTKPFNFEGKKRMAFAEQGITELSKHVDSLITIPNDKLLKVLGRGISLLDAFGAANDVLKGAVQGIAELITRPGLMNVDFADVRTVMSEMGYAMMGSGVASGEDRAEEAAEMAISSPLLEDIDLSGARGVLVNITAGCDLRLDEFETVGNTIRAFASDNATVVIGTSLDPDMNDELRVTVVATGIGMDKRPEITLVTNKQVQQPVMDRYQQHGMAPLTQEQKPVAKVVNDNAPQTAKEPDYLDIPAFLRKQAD

[3] = biological target: T1, FtsZ from Escherichia coli; assay: Bodipy fluorescence quenching assay of assembly; HMK buffer, room temperature; 7 µM EcFtsZ (less than 10% Bodipy labeled T151C/Y222W with wild type), alone or with 10 µM ZapA or ZipA
[4] = biological target: T3, FtsZ from Pseudomonas aeruginosa (P. aeruginosa, UniProt P47204 1-394); assay: negative stain electron microscopy; MMK buffer (50 mM MES, 100 mM KAc, 5 mM MgAc, pH 6.5), GTP, 1-5 min at room temperature; 5 µM PaFtsZ alone, or with 10 µM ZipA or ZapA
T3 construct: FtsZ, Pseudomonas aeruginosa; cloned in pET15b at NdeI/BamHI; Forms protofilaments and bundles with GTP; also called PaFtsZ; source: E. coli BL21 (pET15b), purified (Talon column, thrombin, source Q 10/10)
T3 sequence (looked up): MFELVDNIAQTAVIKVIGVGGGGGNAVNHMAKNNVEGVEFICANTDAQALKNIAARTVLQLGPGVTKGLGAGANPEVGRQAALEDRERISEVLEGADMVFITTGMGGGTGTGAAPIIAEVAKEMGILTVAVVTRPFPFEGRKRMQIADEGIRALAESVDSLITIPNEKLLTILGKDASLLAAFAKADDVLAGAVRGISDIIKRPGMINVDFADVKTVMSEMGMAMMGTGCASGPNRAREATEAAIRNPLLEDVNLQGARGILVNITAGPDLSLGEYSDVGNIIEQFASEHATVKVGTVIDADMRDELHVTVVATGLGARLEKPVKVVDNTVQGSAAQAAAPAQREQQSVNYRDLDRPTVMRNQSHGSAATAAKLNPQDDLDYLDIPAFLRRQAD

[5] = biological target: T3, FtsZ from Pseudomonas aeruginosa; assay: negative stain electron microscopy; HMK buffer (50 mM HEPES, 100 mM KAc, 5 mM MgAc, pH 7.5), GTP, 1-5 min at room temperature; 3 or 5 µM PaFtsZ alone, or 5 µM PaFtsZ with 10 µM ZipA or ZapA

B1: ZapA from Escherichia coli (natural protein, E. coli, UniProt P0ADS2 1-109, looked up)
chain: MSAQPVDIQIFGRSLRVNCPPDQRDALNQAADDLNQRLQDLKERTRVTNTEQLVFIAALNISYELAQEKAKTRDYAASMEQRIRMLQQTIEQALLEQGRITEKTNQNFE
notes: ZapA, Escherichia coli; cloned in pET15b at NdeI/BamHI; Removal of the His tag is told only for PaFtsZ; also called EcZapA; source: E. coli BL21 (pET15b), purified (Talon column)
B1: binds [1]; binds [2].

B2: EcFtsZ-T151C/Y222W labeled with Bodipy at Cys151 (natural protein, E. coli, UniProt P0A9A6 1-383, looked up)
chain: MFEPMELTNDAVIKVIGVGGGGGNAVEHMVRERIEGVEFFAVNTDAQALRKTAVGQTIQIGSGITKGLGAGANPEVGRNAADEDRDALRAALEGADMVFIAAGMGGGTGTGAAPVVAEVAKDLGILTVAVVTKPFNFEGKKRMAFAEQGICELSKHVDSLITIPNDKLLKVLGRGISLLDAFGAANDVLKGAVQGIAELITRPGLMNVDFADVRTVMSEMGWAMMGSGVASGEDRAEEAAEMAISSPLLEDIDLSGARGVLVNITAGFDLRLDEFETVGNTIRAFASDNATVVIGTSLDPDMNDELRVTVVATGIGMDKRPEITLVTNKQVQQPVMDRYQQHGMAPLTQEQKPVAKVVNDNAPQTAKEPDYLDIPAFLRKQAD
modifications: Bodipy-FL N-(2-aminoethyl)maleimide on Cys 151
notes: FtsZ, Escherichia coli, double mutant T151C/Y222W; in pET11b; Used mixed with a ninefold excess of unlabeled wild-type EcFtsZ; also called Bodipy labeled FtsZ; labeled EcFtsZ; source: bacterially expressed (pET11b), purified (30% ammonium sulfate, source Q 10/10)
B2: binds [3].

B3: N-terminal truncated PaZipA (26-289) (domain or fragment, P. aeruginosa, UniProt Q9I3I5 26-289, looked up)
chain: RRMRGGKGKLKFKLDRSFANLPDDDGDSAELLGPARVVEHREPSFDEQDLPSVSAREAKERKGGKRQEEPRQGDLDLDEGLALEADPSDAAETVEPRKGKSKGRKEKEREKAPAVAAEPAPVDEVLIINVIARDESGFKGPALLQNILESGLRFGDMDIFHRHESMAGNGEILFSMANAVKPGTFDLDDIDNFSTRAVSFFLGLPGPRHPKQAFDVMVAAARKLAHELNGELKDEQRSVLTAQTIEHYRQRIIDHERRSLMQKR
notes: ZipA, Pseudomonas aeruginosa, residues 26-289; N-terminally truncated to remove the transmembrane domain; Removal of the His tag is told only for PaFtsZ; also called ZipA from Pseudomonas aeruginosa; source: E. coli BL21 (pET15b), purified (Talon column)
B3: binds [4].

B4: ZapA from Pseudomonas aeruginosa (natural protein, P. aeruginosa, UniProt Q9HTW3 1-104, looked up)
chain: MSQSNTLTVQILDKEYCINCPDDERANLESAARYLDGKMREIRSSGKVIGADRVAVMAALNITHDLLHRKERLDQESSSTRERVRELLDRVDRALANPADAGEA
notes: ZapA, Pseudomonas aeruginosa; cloned in pET15b at NdeI/BamHI; Removal of the His tag is told only for PaFtsZ; also called PaZapA; source: E. coli BL21 (pET15b), purified (Talon column)
B4: binds [5].
